In publication PMC6529012:

Legend:
[1] = target: human foreskin fibroblast fibronectin (human)
[2] = target: human foreskin fibroblast fibronectin (human); remark: listed apart in the source

Sequence of human foreskin fibroblast fibronectin (human) (P02751 32-2477): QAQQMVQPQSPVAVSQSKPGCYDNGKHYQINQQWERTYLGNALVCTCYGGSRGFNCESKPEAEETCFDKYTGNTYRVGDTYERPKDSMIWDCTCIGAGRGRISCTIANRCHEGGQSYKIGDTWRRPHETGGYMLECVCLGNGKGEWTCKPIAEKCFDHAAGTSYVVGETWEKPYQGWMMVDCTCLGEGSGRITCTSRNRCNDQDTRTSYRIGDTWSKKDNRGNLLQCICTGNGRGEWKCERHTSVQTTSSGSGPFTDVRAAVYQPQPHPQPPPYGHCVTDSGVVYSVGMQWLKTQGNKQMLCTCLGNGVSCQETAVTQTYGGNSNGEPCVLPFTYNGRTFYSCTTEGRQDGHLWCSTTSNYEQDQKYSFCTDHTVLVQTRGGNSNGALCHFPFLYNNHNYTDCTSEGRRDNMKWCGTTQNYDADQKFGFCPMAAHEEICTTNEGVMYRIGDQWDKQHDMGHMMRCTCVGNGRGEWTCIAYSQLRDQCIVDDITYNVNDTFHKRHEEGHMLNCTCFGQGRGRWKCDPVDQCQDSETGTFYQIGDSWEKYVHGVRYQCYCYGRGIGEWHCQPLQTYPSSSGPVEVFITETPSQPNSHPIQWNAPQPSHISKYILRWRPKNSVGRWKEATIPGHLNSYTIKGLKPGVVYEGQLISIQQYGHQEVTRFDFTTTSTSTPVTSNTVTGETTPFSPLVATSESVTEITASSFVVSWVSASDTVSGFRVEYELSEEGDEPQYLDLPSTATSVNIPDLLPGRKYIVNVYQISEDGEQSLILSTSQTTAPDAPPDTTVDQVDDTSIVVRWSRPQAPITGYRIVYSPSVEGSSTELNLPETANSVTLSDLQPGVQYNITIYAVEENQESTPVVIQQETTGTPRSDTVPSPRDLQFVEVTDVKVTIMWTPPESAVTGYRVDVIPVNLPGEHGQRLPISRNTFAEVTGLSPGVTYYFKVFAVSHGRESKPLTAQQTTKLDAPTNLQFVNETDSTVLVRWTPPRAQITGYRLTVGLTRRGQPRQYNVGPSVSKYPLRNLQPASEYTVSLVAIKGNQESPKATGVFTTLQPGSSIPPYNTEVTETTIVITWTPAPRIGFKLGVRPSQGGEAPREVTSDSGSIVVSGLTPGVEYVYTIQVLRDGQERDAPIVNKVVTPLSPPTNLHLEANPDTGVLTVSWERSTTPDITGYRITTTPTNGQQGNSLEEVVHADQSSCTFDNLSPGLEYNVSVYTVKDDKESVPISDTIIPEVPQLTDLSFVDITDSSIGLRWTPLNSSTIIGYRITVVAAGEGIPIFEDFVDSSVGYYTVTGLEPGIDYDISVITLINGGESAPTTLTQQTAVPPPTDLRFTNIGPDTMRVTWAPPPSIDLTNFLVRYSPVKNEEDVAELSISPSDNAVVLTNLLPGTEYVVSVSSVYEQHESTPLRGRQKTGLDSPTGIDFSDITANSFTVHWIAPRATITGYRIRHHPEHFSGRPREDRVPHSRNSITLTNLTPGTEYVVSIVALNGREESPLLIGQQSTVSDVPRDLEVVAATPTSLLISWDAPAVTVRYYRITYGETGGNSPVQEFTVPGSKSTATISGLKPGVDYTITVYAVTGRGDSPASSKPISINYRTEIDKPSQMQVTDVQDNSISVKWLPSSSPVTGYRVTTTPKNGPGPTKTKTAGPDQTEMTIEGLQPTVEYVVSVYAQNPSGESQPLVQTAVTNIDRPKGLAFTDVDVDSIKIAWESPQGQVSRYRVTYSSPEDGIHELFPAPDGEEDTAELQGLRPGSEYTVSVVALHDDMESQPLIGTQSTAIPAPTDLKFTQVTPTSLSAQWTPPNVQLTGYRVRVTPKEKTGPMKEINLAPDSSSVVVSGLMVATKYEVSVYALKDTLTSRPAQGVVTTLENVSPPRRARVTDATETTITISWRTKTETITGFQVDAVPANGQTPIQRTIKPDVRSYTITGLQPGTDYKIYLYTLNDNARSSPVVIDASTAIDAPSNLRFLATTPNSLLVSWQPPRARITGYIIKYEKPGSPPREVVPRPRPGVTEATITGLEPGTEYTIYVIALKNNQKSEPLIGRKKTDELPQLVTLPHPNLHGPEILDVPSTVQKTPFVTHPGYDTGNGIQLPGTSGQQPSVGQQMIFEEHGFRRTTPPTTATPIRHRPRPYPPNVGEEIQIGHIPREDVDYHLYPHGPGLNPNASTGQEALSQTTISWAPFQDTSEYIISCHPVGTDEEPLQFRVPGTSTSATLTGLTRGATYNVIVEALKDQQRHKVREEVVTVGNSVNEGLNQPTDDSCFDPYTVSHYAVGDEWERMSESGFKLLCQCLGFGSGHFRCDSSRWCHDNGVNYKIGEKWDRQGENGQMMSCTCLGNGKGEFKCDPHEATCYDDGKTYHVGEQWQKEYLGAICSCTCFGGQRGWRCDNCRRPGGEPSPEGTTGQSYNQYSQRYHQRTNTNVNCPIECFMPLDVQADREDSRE

Binder	reduction by FnbA-2 peptide (10 ug/well, preincubated with the monolayer) of adherence of radiolabelled B314 expressing Tp0136 to C6 (rat) glioma cells [1] [%]	reduction by FnbA-2 peptide (10 ug/well, preincubated with the monolayer) of adherence of radiolabelled B314 expressing Tp0136 to HEK293 cells [1] [%]	average percent binding of radiolabelled B314 expressing Tp0136 to Vero cells [2] [%]
Tp0136 of Treponema pallidum subsp. pallidum SS14 strain, expressed on the surface of B. burgdorferi B314 (natural protein) CDFTGIFAAIQSEVPIKTPSIPGAIYGLVKAGSKLYATNGRLWEKELNGTGSWQKVSSSSVPTDSDKKVMSIATDGNTFVLACVPGTGVYKHCVNGAGSSSTGTTASPSTETCSQHATLVGGTSKPFWLVPGGTGNNGNCGCGGGGGGSSSSSSSCIHIWLVPGGTGNNGNCGCGGGGGGSSSSSSSCIHIKVENTDEQFLDMGEGYVVTTKHLYTKNGSSSAGPAQCPGGGGGGGSSGGGGSSEYTKASCSFSTPILASVSDGCYHYILTKEKVYCRKQDTASSAASSPAQCPSSPSSSSSSSTNAGCEVAHGVDDPLCLAIFKHNGCEYLLIGGSRGYGEIKLEANSSGTNGTCMRLKESNVHKSPGQWGESSPTPKASAEQYRGTVGRFAVQKIYVVEKNGGGNGVAAGGAGCPANASSSSGGTSSTQRPDLYAAVGESSDTYTGLWKFDTTTCSWNRE	25.3	18.8	6
Tp0136 of Treponema pallidum subsp. pallidum Nichols (Seattle-Nichols) strain, expressed on the surface of B. burgdorferi B314 (natural protein) CDFTGIFAAIQSEVPIKTPSIPGAIYGLVKAGSKLYATNGRLWEKELNGTGSWQKVSSSSVPTDSDKKVMSIATDGNTFVLACVPGTGVYKHCVNGAGSSSTGTTASPSTETCSQHATLVGGTSKPFWLVPGGTGNNGNCGCGGGGGGSSSSSSSCIHIWLVPGGTGNNGNCGCGGGGGGSSSSSSSCIHIKVENTDEQFLDMGEGYVVTTKHLYTKNGSSSAGPAQCPGGGGGGGSSGGGGSSEYTKASCSFSTPILASVSDGCYHYILTKEKVYCRKQDTASSAASSPAQCPSSPSSSSSSSTNAGCEVAHGVDDPLCLAIFKHNGCEYLLIGGSRGYGEIKLEANSSGTNGTCMRLKESNVHKSPGQWGESSPTPKASAEQYRGTVGRFAVQKIYVVEKNGGGNGVAAGGAGCPANASSSSGGTSSTQRPDLYAAVGESSDTYTGLWKFDTTTCSWNRE	27.7	26.3	8
